Substrate: C#CCCCCC(=O)O
Assay: purified protein
Assay type: biochemical, Synechocystis salina
Details: co-substrate bartoloside G (5) 100 μM, 20 mM HEPES, 50 mM NaCl, 10 mM MgCl2, 5 mM CaCl2, pH 8.0, 37 °C, standard error, n = 3

B1: NStrep-BrtB (Synechocystis salina LEGE 06099) (protein)
chain: MANPFDVALTNLNSLYSGIPDVPVLQTYNSLNPYDISLTNLNNLSNFVIEPAVLPTAAGTYGPQISEIAFALGGGIITGALADLLSTELGIEIENEALITKFLSFWTPGSDYAFGQDYVEFIQGREGFDTIIGYDPGFNSALAPVQIDFVLGGPRQDFNFFAPLDEPARYVLGDWRTPYYVDNDIQSEGLNEFMYVSLFTLNPDEFSPDNAENHRIQLYGSLDNYYFVPTTVVIDGSALDPSLPSIPVPGTEIYYKTGQVFADLIAIVPFQDPNDPNLISAWIDFEGYLPPEQADLSGQTANPLLSGSPLLQLGYEGIDMGTATALAPDGDIYVAGSTSSLLGPFPRGGSDNFIARYNDDGSLEWIVQFGSTEFDIITDIVSDSAGNVYATGWTRGNVETGFGLAPGVQDNWVAKFDANGSQLWVEQFTIDGYLDRSMGIALDEVNGRIHLTGHSNTDGSVADTNDPAIVPNGNVVTWIAGFDANTGAEDYRNVFEVAQTSNSRGRIDEGFGIDVDDAGNVFSTGWAGENAYDVYLVKSDTDGAVLWTKSFGTGSNATQSYAWDVASDGTNAYILGWTQGELNTFRDQIPPTDEFAGNATAPLTPQNAYQGGTFDAFVAAYDTDGTELWTWHVGGTGDDGTFFGKIVAAGDFVYATGYTDGFIGTLGGSNAGDYDAWIGKFDKLTGQTAWIQQIGSTKLDYATGISVDGDDIFVTGFTEGSLGGLNGGASDAWVAKLNQDGALEAFNVSAPIAPPAPFAPPAPLTPPAPPAPDLSSLQSLGSTPQPTYPALGDSYGTNPFGTQPTQPTYDLSSMYQNAYYGGFGGYSGYGY
notes: N-terminal Strep-Tag, pET-51b, E. coli BL21 (DE3) Rosetta; cloning primers imply N-terminus MANPF and C-terminus GYGY; two protein preparations pooled 1:1
For B1, the Km was 234 ± 41 µM.

Source: PMC7081238, “BrtB is an O-alkylating enzyme that generates fatty acid-bartoloside esters” (Nature Communications, 2020)
